{
  "source": "paper PMC12232725",
  "binders": {"B1": {"name": "45-bp DNA (ISD) (dsDNA)", "DNA 1": "TACAGATCTACTAGTGATCTATGACTGATCTGTACATGATCTACA", "DNA 2": "TGTAGATCATGTACAGATCAGTCATAGATCACTAGTAGATCTGTA"}, "B2": {"name": "50-bp DNA-Cy5 (dsDNA)", "DNA 1": "GATCTCTTGTAGATCTGTTCTCTAAACGAACTTTAAAATCTGTGTGGCTG", "DNA 2": "CAGCCACACAGATTTTAAAGTTCGTTTAGAGAACAGATCTACAAGAGATC"}, "B3": {"name": "50-bp DNA (label-free) (dsDNA)", "DNA 1": "B2 DNA 1", "DNA 2": "B2 DNA 2"}},
  "key": {"biotin-AviTag-cGASCD": {"biological_target": "biotin-AviTag-cGASCD (human, UniProt Q8N884 158-522)", "assay": "BLI; N protein first adds signal, then accelerates dissociation", "conditions": "protein: recombinant; tags: AviTag, biotinylated; blunt"}, "[1]": {"biological_target": "T1, N protein (unphosphorylated, lambda-phosphatase treated) (SARS-CoV-2 (isolate Wuhan-Hu-1), UniProt P0DTC9 1-419)", "assay": "MST; apparent; Hill nH = 1.7 +/- 0.4", "conditions": "protein: recombinant; tags: His6-MBP tag cleaved (3C); linker remnant possible; chain copies: 2; stem loop"}, "cGAS": {"biological_target": "cGAS (human, UniProt Q8N884 1-522)"}, "[2]": {"biological_target": "T1, N protein (unphosphorylated, …)", "assay": "MST; apparent; Hill nH = 1.6 +/- 0.1", "conditions": "protein: recombinant; tags: His6-MBP tag cleaved (3C); linker remnant possible; chain copies: 2; label: Cy5 at 5' end of forward strand; blunt"}},
  "data": [
    {"binder": "B1", "values": [
      {"measurement": "binding result", "setting": "biotin-AviTag-cGASCD", "result": "binds"}
    ]},
    {"binder": "GAUCUCUUGUAGAUCUGUUCUCUAAACGAACUUUAAAAUCUGUGUGGCUG (ssRNA)", "note": "[50-nt RNA-Cy5]", "values": [
      {"measurement": "Kd", "setting": "[1]", "result": "3 ± 0.4", "unit": "nM"}
    ]},
    {"binder": "B2", "values": [
      {"measurement": "binding result", "setting": "cGAS", "result": "binds"},
      {"measurement": "Kd", "setting": "[2]", "result": "6.3 ± 0.3", "unit": "nM"}
    ]},
    {"binder": "B3", "values": [
      {"measurement": "binding result", "setting": "cGAS", "result": "binds"}
    ]}
  ]
}
